Laboratory results: US20030105283A1

B1: purified antigenic protein MF-2 (protein)
chain: EIGSTIPNATFAYVPYSPELEDHKVCGMPTSFQSHERWKGKKVVIVAVPGAFTPTCTANHVPPYVEKIQELKSKGVDEVVVISANDPFVLSAWGITEHAKDNLTFAQDVNCEFSKHFNATLDLSSKGMGLRTARYALIANDLKVEYFGIDEGEPKQSSAATVLSKL
modifications: N-terminus blocked
B2: purified antigenic protein MF-1 (protein)
chain: PGDPTATAKGNEIPDTLMGYIPWTPELDSGEVCGIPTTFKTRDEWKGKKVVIVSIPGAYTPICHQQHIPPLVKRVDELKAKGVDAVYVIASNDPFVMAAWGNFNNAKDKVVFATDIDLAFSKALGATIDLSAKHFGERTARYALIIDDNKIVDFASDEGDTGKLQNASIDTILTKV

How the values were obtained:
[1] = biological target: IgE antibodies in pooled sera from patients (collection of sera from 10 patients showing high values in RAST method); assay: RAST cross inhibition, pooled patient sera; competitor: MF-4 immobilised on solid phase
[2] = biological target: IgE antibodies in pooled sera from patients (collection of sera from 10 patients showing high values in RAST method); assay: RAST cross inhibition, pooled patient sera; competitor: MF-2 immobilised on solid phase
[3] = biological target: IgE antibodies in pooled sera from patients (collection of sera from 10 patients showing high values in RAST method); assay: RAST cross inhibition, pooled patient sera; competitor: MF-1 immobilised on solid phase

| Binder | IC50 [1] [µg/mL] | relative concentration for 50% inhibition (in brackets; homologous antigen = 1) [1] | IC50 [2] [µg/mL] | relative concentration for 50% inhibition (in brackets; homologous antigen = 1) [2] | IC50 [3] [µg/mL] | relative concentration for 50% inhibition (in brackets; homologous antigen = 1) [3] |
| --- | --- | --- | --- | --- | --- | --- |
| B1 | 30 | 480 | 0.013 | 1 | 8.6 | 230 |
| B2 | 18 | 290 | > 100 | > 7700 | 0.038 | 1 |
